Test results published in PMC3698143, “GRG5/AES Interacts with T-Cell Factor 4 (TCF4) and Downregulates Wnt Signaling in Human Cells and Zebrafish Embryos” (PLoS ONE, 2013).

Molecular target: Myc-tagged full-length TCF4 (human, UniProt Q9NQB0-8 1-596)
Assay: cell-based or functional assay

Sequence of Myc-tagged full-length TCF4 (Q9NQB0 other isoform, or with tags, fused parts or gaps): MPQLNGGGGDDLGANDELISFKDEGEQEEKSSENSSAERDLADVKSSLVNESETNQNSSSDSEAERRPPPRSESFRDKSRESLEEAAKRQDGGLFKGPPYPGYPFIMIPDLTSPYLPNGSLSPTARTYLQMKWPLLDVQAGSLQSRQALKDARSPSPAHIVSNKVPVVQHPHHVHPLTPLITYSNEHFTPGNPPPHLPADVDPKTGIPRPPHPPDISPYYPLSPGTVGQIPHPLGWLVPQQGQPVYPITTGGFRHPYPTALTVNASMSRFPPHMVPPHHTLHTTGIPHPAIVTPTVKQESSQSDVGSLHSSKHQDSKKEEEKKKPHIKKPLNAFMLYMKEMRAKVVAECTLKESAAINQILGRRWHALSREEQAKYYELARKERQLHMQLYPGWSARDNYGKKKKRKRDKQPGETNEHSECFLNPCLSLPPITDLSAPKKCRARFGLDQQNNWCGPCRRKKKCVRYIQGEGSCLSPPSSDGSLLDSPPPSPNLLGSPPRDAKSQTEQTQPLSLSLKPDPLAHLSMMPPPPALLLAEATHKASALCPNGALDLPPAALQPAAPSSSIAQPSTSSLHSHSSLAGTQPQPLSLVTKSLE

B1: HA-epitope-tagged GRG5/AES (natural protein, human, UniProt Q08117 1-197, looked up)
chain: MMFPQSRHSGSSHLPQQLKFTTSDSCDRIKDEFQLLQAQYHSLKLECDKLASEKSEMQRHYVMYYEMSYGLNIEMHKQAEIVKRLNGICAQVLPYLSQEHQQQVLGAIERAKQVTAPELNSIIRQQLQAHQLSQLQALALPLTPLPVGLQPPSLPAVSAGTGLLSLSALGSQAHLSKEDKNGHDGDTHQEDDGEKSD
TCF-Luc luciferase reporter in HEK293 cells with transfected β-catenin: repression on co-transfection of GRG5/AES and dnTCF4 plasmids (0.4 µg each), against a 6.3-fold additive effect of each alone: 22.5 fold
